{"source": "patent US20240350646A1", "about": "“METHODS AND COMPOSITIONS FOR DELIVERY TO AND ACROSS THE BLOOD BRAIN BARRIER” (NUtech Ventures, priority 2021, published 2024)", "key": {"human claudin-3": {"target": "T1, human claudin-3 (Homo sapiens, UniProt O15551)", "T1 sequence (O15551 1-220)": "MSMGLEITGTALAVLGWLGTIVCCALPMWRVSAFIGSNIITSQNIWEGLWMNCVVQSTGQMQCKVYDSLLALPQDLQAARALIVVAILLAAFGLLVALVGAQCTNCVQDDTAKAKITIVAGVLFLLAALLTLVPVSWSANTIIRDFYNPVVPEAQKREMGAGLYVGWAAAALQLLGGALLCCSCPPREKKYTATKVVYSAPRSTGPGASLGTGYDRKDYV", "assay": "Microscale thermophoresis (MST) binding", "details": "0.1% beta-UDM buffer", "experimental": "(§1) Human claudin-1 was expressed and purified as reported previously (Vecchio & Stroud, 2019, PNAS USA, 116:17817-24). MST measurements were performed using a Monolith instrument (NanoTemper Technologies). For experiments with human claudin-1, the assay buffer contained 10 mM Tris HCl, pH 8.0, 100 mM NaCl, 4% glycerol, and 0.04% n-Dodecyl-β-D-Maltopyranoside (β-DDM). NPs and peptides were labeled with AF647 prior to MST analysis as described above. For the binding experiments, the concentration of human claudin-1 was varied from 2.2-73,500 nM and the AF647-labeled C1C2-NP was fixed at 70 nM, while the AF647 labeled NPs and AF647 labeled C1C2 peptide were fixed at 1 and 0.3 μM, respectively. Binding of the AF647 labeled C1C2-NP to human claudin-3, -4, and -9 were tested using 0.4-14000 nM, 0.8-28000 nM, and 0.6-20000 nM, respectively; with the AF647 labeled C1C2-NP fixed at 70 nM. This assay buffer was similar, except β-DDM was replaced with 0.1% n-Undecyl-β-D-Maltopyranoside (beta-UDM). In order to check non-specific binding of β-DDM micelles to the AF647 labeled C1C2-NP, the concentration of beta-DDM was varied from 0.03-900 μM and the concentration of the AF647-labeled C1C2-NP was fixed at 1 μM. A similar experiment was performed wherein the concentration of beta-UDM was varied from 0.3-10,000 μM and the concentration of AF647-labeled control NP was fixed at 1 μM. The non-specific binding of human claudins 4 and 9 to the NP was examined by varying the concentrations of human claudins 4 and 9 from 0.7-20,100 nM and 0.8-31,100 nM, respectively. The human claudin sub-dilutions were mixed with the NPs or peptides and loaded in standard monolith NT.115 capillary tubes for measurement. All experiments were conducted at 23° C. using the nano-red channel of the Monolith instrument and the data were analyzed by using either Monolith analysis software or Graph Pad Prism, version 9 (Graph Pad Software, San Diego, California)."}, "human claudin-4 [1]": {"target": "T2, human claudin-4 (Homo sapiens, UniProt O14493)", "T2 sequence (O14493 1-209)": "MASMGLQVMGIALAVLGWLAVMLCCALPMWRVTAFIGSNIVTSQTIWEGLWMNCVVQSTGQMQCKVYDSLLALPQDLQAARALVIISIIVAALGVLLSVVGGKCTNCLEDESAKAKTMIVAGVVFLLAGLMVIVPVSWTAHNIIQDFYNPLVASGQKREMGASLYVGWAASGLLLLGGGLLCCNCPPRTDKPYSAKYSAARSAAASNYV", "assay": "Microscale thermophoresis (MST) binding", "details": "0.1% beta-UDM buffer", "experimental": "as §1"}, "human claudin-9 [2]": {"target": "T3, human claudin-9 (Homo sapiens, UniProt O95484)", "T3 sequence (O95484 1-217)": "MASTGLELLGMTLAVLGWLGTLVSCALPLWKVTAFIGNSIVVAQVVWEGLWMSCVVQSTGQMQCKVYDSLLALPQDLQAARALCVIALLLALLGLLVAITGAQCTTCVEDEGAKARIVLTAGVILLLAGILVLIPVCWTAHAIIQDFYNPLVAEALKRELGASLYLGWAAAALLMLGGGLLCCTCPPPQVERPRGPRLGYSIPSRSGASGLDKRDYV", "assay": "Microscale thermophoresis (MST) binding", "details": "0.1% beta-UDM buffer", "experimental": "as §1"}, "claudin-1": {"target": "T4, claudin-1 (Mus musculus, UniProt O88551)", "T4 sequence (O88551 1-211)": "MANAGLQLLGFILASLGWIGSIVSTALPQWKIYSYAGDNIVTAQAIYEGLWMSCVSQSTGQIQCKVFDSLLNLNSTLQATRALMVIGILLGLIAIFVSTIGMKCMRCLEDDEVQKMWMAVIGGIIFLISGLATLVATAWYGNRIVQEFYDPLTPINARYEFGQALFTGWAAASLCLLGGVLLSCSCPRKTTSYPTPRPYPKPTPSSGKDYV", "details": "corpus callosum and hippocampus, in vivo", "procedure": "A fluorescence microscope (LSM800, Zeiss) was used to take the fluorescence image of mice brain. Mice were transcardially perfused after 2 h of MRI with 4% paraformaldehyde (PFA) in Dulbecco's phosphate-buffered saline (DPBS, Thermo Fisher Scientific, Waltham, MA). Brain tissue was collected, trimmed, and fixed in 4% buffered PFA for 24 h. The brains were moved into 30% sucrose in DPBS for 3 d at 4° C. for cryoprotection. The brains were then embedded in 2.6% carboxymethylcellulose (CMC, C4888, Sigma-Aldrich, St. Louis, MO), frozen on dry ice, and sliced coronally at a 15 μm thickness with cryotome (Leica Biosystems, Wetzlar, Germany). The brain slices were laid on poly-L-lysine coated microscope slides (Thermo Fisher Scientific) and dried overnight at RT. […]\nImages were acquired with confocal microscopy at 40× objective lens magnification. Quantitative image analysis was performed with ImageJ software on at least two randomly selected viewing fields for each region for each mouse. The fluorescence signal of claudin-1 was thresholded to only integrate the density above 20 to remove the background fluorescence. Gamma correction was performed only on the representative images after the immunofluorescence quantification with shadows value of 0, midtones value of 0.26, and highlights value of 100 for all CMYK channels with Adobe Photoshop."}, "human claudin-4 [3]": {"target": "T5, human claudin-4 (human, UniProt O14493 1-209, limits assumed)", "T5 sequence (looked up)": "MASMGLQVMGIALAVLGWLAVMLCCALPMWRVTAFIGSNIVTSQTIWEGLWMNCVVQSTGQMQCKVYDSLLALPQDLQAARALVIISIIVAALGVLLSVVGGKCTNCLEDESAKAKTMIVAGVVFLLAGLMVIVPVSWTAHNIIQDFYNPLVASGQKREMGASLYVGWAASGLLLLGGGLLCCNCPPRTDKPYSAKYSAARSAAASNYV", "assay": "MST, sigmoidal dose-response fit (GraphPad Prism) of the FIG. 10A data; confidence interval undefined [panel B]", "experimental": "(§2) FIG. 10A is a graph showing binding of human claudins 3, 4 and 9 to C1C2-NPs using microscale thermophoresis. […] FIG. 10C is a graph showing the binding of human claudins 4 and 9 to control NPs monitored using microscale thermophoresis. […] Data fitting for human claudins 3, 4 and 9 were performed using Graph Pad Prism.\n(§3) Human claudin-1 was expressed and purified as reported previously (Vecchio & Stroud, 2019, PNAS USA, 116:17817-24). MST measurements were performed using a Monolith instrument (NanoTemper Technologies). For experiments with human claudin-1, the assay buffer contained 10 mM Tris HCl, pH 8.0, 100 mM NaCl, 4% glycerol, and 0.04% n-Dodecyl-β-D-Maltopyranoside (β-DDM). NPs and peptides were labeled with AF647 prior to MST analysis as described above. For the binding experiments, the concentration of human claudin-1 was varied from 2.2-73,500 nM and the AF647-labeled C1C2-NP was fixed at 70 nM, while the AF647 labeled NPs and AF647 labeled C1C2 peptide were fixed at 1 and 0.3 μM, respectively. Binding of the AF647 labeled C1C2-NP to human claudin-3, -4, and -9 were tested using 0.4-14000 nM, 0.8-28000 nM, and 0.6-20000 nM, respectively; with the AF647 labeled C1C2-NP fixed at 70 nM. This assay buffer was similar, except β-DDM was replaced with 0.1% n-Undecyl-β-D-Maltopyranoside (beta-UDM)."}, "human claudin-9 [4]": {"target": "T6, human claudin-9 (human, UniProt O95484 1-217, limits assumed)", "T6 sequence (looked up)": "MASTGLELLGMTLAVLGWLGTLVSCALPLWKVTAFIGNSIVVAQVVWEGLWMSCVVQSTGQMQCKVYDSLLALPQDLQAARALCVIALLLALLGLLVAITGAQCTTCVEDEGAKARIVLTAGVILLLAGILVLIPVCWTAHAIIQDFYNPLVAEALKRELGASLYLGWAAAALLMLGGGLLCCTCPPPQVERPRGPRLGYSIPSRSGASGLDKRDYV", "assay": "MST, sigmoidal dose-response fit (GraphPad Prism) of the FIG. 10A data, M is the unit of the concentration axis of panel A; fit did not converge [panel B]", "experimental": "as §2, §3"}, "human claudin-4 [5]": {"target": "T5, human claudin-4", "assay": "MST, sigmoidal dose-response fit (GraphPad Prism) of the FIG. 10A data, M is the unit of the concentration axis of panel A; confidence interval undefined [panel B]", "experimental": "as §2, §3"}}}
{"molecule": "C1C2-NP: PEG diacid coated ultrasmall Gd NP conjugated with C1C2 peptide SSVSQSTGQIQSKVDSLLNLNSTQATR (SEQ ID NO: 6); claudin-1 targeted (Ac-SSVSQSTGQIQSKVDSLLNLNSTQATR-NH2; also: conjugated to PEG diacid coated ultrasmall Gd nanoparticle)", "values": [{"measurement": "Binding to human claudin 3 (in words)", "setting": "human claudin-3; listed as AF647-C1C2-NP", "result": "does not show any binding"}, {"measurement": "Binding to human claudin 3 (in words)", "setting": "human claudin-3; listed as C1C2-NPs", "result": "undefined 95% confidence intervals"}, {"measurement": "Binding to human claudin 4 (in words)", "setting": "human claudin-4 [1]; listed as AF647-C1C2-NP", "result": "weak"}, {"measurement": "Binding to human claudin 4 (in words)", "setting": "human claudin-4 [1]; listed as C1C2-NPs", "result": "undefined 95% confidence intervals"}, {"measurement": "Binding to human claudin 9 (in words)", "setting": "human claudin-9 [2]; listed as AF647-C1C2-NP", "result": "weak"}, {"measurement": "Binding to human claudin 9 (in words)", "setting": "human claudin-9 [2]; listed as C1C2-NPs", "result": "the data did not fit"}, {"measurement": "Localization relative to claudin-1 immunofluorescence staining", "setting": "claudin-1", "result": "co-localize"}]}
{"molecule": "Ac-SSVSQSTGQIQSKVDSLLNLNSTQATR-NH2 (not fully specified; also: conjugated by EDC-NHS chemistry to PEG diacid on Gd oxide nanoparticle surface (19 peptides per 3.5 nm particle), The protein part is the C1C2 peptide; the core is not a protein; also called C1C2-NPs; C1C2 NPs)", "note": "[C1C2-NP (C1C2 peptide conjugated to PEG diacid coated ultrasmall Gd nanoparticles)]", "values": [{"measurement": "LogEC50", "setting": "human claudin-4 [3]", "result": -4.7}, {"measurement": "EC50", "setting": "human claudin-9 [4]", "result": 218, "unit": "mM"}, {"measurement": "EC50", "setting": "human claudin-4 [5]", "result": 0.0201, "unit": "mM"}]}
